Biological target: T1, MdNAC7 (Malus domestica, UniProt D9ZJA6 1-263)
T1 sequence: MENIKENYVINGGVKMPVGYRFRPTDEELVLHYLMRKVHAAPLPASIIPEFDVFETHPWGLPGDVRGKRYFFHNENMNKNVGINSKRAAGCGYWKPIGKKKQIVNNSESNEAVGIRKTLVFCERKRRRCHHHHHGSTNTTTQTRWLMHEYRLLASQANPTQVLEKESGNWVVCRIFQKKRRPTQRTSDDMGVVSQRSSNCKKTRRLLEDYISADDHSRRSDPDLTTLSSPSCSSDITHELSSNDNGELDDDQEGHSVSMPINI
Experiment: EMSA; LightShift Chemiluminescent EMSA kit, 10 uL, room temperature 30 min, 6% polyacrylamide gel in 0.5x TBE; salt and pH not stated
Settings: protein: recombinant; chain copies: 2; label: biotin

B1: MdXTH2 promoter probe for MdNAC7 (dsDNA)
DNA 1: GTAGTACACCATGTGTTATTAT
DNA 2: ATAATAACACATGGTGTACTAC
  binding result: no binding
